Values quoted from earlier work as cited in article PMC5040164.
pKd: −log10 of the molar value.

Biological target: SAS1B (Mus musculus) (UniProt Q6HA09)
Chain of UniProt Q6HA09 (Q6HA09 24-435): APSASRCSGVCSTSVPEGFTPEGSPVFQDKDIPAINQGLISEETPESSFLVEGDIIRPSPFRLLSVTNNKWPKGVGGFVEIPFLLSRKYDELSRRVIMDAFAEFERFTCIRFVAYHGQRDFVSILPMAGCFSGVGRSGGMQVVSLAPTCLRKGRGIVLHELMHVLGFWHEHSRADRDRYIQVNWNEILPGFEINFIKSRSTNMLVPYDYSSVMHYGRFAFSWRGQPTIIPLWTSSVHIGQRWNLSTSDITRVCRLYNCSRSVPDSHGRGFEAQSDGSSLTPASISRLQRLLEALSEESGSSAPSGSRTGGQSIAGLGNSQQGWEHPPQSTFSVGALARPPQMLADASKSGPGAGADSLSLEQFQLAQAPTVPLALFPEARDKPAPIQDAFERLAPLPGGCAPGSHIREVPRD

Question: With SLLP1 (from UniProt Q9D9X8) as the substance, how does the pKd read?
Answer: Its pKd is 9.49.
